Source: patent US20250333508A1

How the values were obtained:
[1] = target: human CTLA-4 his tag antigen (human) (UniProt P16410); experiment: ELISA on coated human CTLA-4 his tag protein, goat anti-human IgG-Fc HRP; unit from the axis; the isotype curve is flat at OD450 0, so the number comes from a fit of a flat line
[2] = target: murine CTLA-4. his tag protein (murine) (UniProt P09793); experiment: ELISA on coated mouse CTLA-4 his tag protein, goat anti-human IgG-Fc HRP; unit from the axis; the isotype curve is flat at OD450 0, so the number comes from a fit of a flat line
[3] = target: cynomolgus monkey CTLA-4. his tag protein (cynomolgus monkey) (UniProt G7PL88); experiment: ELISA on coated cynomolgus monkey CTLA-4 his tag protein, goat anti-human IgG-Fc HRP; unit from the axis; the isotype curve is flat at OD450 0, so the number comes from a fit of a flat line

Measured: EC50

Sequence of UniProt G7PL88 (G7PL88 entry or part of it limits assumed): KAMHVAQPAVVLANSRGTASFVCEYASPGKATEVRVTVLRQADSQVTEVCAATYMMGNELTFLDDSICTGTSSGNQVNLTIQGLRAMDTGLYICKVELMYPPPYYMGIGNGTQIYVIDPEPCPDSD
Sequence of UniProt P09793 (P09793 36-161 limits assumed): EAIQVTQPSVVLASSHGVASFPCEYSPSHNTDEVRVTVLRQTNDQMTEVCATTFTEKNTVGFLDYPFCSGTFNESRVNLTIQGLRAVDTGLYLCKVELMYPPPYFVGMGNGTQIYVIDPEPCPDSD
Sequence of UniProt P16410 (P16410 36-161 limits assumed): as the sequence (G7PL88 entry or part of it limits assumed) above, with N14S, T18I, M106L counted along it

Isotype (antibody)
5.74 nM: [1] | [2] | [3]
